For assay [1], the target named is ZmBAM7-S (short form of corn BAM7), full-length recombinant protein (Zea mays). Nature of the assay: SAXS.
Assay [2] shares this target. As to the kind of experiment: SEC. (In general: Size exclusion chromatography separates by hydrodynamic size, large species first.)

The term stoichiometry N denotes the number of molecules, sites or subunits per partner or assembly.

Several values for one entry are separate records, joined by “and”; a condition that tells them apart may be missing. Identical values can stand only once.

“ZmBAM7-S (short form of corn BAM7), full-length recombinant protein (enzyme)”: the stoichiometry N in assay [1] is 4; in assay [2], 4 subunits and 6 subunits.

Source of the values: paper doi:10.1101/2021.10.14.464379.
